{
  "source": "patent US20220048954A1",
  "biological_target": "mouse angiotensin converting enzyme 2 (ACE2) (mouse) (UniProt Q8R0I0)",
  "sequence (Q8R0I0 18-805)": "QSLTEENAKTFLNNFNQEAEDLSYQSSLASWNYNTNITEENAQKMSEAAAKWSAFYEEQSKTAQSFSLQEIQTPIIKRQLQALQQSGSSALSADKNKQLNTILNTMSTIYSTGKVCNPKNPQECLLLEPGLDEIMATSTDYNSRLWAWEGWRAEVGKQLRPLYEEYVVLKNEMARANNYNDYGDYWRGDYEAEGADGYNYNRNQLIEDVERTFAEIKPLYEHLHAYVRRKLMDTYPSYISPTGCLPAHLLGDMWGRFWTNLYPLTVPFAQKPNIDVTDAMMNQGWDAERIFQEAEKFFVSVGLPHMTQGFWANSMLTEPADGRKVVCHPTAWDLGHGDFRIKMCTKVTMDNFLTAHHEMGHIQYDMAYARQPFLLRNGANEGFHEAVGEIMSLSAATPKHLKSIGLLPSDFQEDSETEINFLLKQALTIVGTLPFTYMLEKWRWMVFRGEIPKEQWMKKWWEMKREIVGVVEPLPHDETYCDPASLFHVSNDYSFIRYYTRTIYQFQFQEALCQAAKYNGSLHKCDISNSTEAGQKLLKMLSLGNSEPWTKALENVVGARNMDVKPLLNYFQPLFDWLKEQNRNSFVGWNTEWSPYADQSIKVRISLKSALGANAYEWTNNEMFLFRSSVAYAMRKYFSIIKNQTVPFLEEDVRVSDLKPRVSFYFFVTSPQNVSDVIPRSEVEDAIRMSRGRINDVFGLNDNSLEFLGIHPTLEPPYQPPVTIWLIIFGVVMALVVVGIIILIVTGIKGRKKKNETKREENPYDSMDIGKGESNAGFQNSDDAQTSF",
  "experiment": "cell-based or functional assay",
  "note": "“And” between values parts separate entries of the source, which are not always exact repeats. Equal entries are not always repeated.",
  "data": [
    {"substance": "SARS-CoV2 Spike protein, WT (614D), with C-terminal HA tag (from UniProt P0DTC2 14-1273)", "values": [
      {"measurement": "cell fusion assay, FACS red/green double positive events (x over the baseline without Spike)", "value": "17 and 18"}
    ]}
  ]
}
